Measured values as given in PMC9481740 (The Journal of Cell Biology, 2022).
Positions count from the first letter of the chain named. Names and notes keep the numbering of the source. Values joined by “and” are separate entries in the source; they are usually repeats but may differ in a detail not shown here. Identical values can stand only once.

Assays:
[1] = biological target: ^mChSpindly^Y26BPA (human) (UniProt Q96EA4); assay: mass photometry; Refeyn TwoMP; sample diluted to a final 10 nM in Spindly buffer (50 mM Hepes pH 8.0, 250 mM NaCl, 2 mM TCEP); crosslinked samples measured after dilution beside untreated controls
[2] = biological target: the molecule itself; assay: crystal structure; Spindly 1-100, Se-SAD, refined to 2.8 Å; Bis-Tris Propane/HCl pH 6.5, 19% PEG3350, 0.2 M potassium thiocyanate
[3] = biological target: the molecule itself; assay: mass photometry; Refeyn TwoMP; sample diluted to a final 10 nM in Spindly buffer (50 mM Hepes pH 8.0, 250 mM NaCl, 2 mM TCEP); crosslinked samples measured after dilution beside untreated controls
[4] = biological target: the molecule itself; assay: not stated; unpublished observations; dimer-tetramer equilibrium, tetramer prevailing at micromolar concentration
[5] = biological target: T1, Spindly^250–605 (human, UniProt Q96EA4 250-605); assay: SEC; Spindly N-terminal and C-terminal fragments mixed, 10 µM each; 4°C, Spindly buffer; fractions on SDS-PAGE; details: both partners purified
T1 construct: also called CC2 and CC3; source: TnAO38 insect cells (baculovirus), purified (HisTrap, Resource Q, Superdex 200)
T1 sequence (looked up): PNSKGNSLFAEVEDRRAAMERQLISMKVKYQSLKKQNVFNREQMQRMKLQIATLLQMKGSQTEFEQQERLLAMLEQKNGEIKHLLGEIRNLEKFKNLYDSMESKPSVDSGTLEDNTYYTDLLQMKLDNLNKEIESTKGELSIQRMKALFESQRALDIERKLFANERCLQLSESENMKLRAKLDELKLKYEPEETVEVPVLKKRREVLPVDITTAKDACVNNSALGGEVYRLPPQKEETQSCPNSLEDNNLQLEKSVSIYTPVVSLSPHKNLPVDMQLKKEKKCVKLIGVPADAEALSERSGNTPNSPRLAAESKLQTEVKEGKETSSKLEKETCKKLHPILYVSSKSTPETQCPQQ

[6] = biological target: T2, mCherry-tagged full-length Spindly (^mChSpindly^FL) (human), Q96EA4; assay: mass photometry; Refeyn TwoMP; sample diluted to a final 10 nM in Spindly buffer (50 mM Hepes pH 8.0, 250 mM NaCl, 2 mM TCEP); crosslinked samples measured after dilution beside untreated controls; details: remark: other sources report otherwise
T2 chain: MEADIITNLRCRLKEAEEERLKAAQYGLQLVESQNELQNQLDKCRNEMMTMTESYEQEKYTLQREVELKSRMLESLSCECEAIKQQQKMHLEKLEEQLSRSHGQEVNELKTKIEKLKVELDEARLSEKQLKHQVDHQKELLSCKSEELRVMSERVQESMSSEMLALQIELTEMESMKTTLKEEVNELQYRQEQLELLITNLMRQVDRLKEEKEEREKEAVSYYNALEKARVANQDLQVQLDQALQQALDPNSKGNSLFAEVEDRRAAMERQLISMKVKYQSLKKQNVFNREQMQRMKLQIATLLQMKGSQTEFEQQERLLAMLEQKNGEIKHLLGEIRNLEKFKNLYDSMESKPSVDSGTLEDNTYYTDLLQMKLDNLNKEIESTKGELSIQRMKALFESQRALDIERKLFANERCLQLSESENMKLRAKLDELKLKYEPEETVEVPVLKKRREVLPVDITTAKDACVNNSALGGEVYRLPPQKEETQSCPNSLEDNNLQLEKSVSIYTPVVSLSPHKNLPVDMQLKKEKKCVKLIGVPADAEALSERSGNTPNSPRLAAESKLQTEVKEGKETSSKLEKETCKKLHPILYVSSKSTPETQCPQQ

[7] = biological target: T3, full-length Spindly without mCherry tag (human), Q96EA4; assay: as above; details: remark: other sources report otherwise
T3 chain: T2 chain

For “^mChSpindly^Y26BPA (from UniProt Q96EA4 1-605) (natural protein)”, the stoichiometry N [1] was 2.

B1: Spindly^1–100 (domain or fragment, human, UniProt Q96EA4 1-100, looked up)
chain: MEADIITNLRCRLKEAEEERLKAAQYGLQLVESQNELQNQLDKCRNEMMTMTESYEQEKYTLQREVELKSRMLESLSCECEAIKQQQKMHLEKLEEQLSR
notes: selenomethionine protein was also made for phasing; source: E. coli BL21 (DE3), purified (Ni-Sepharose, ion exchange, S200 SEC); not shown: His6, N-terminal, cleaved
B1 was tested, and the “stoichiometry N” value [2] was 2.

B2: ^mChSpindly^ΔRV (natural protein, human, UniProt Q96EA4 1-605, looked up)
chain: MEADIITNLRCRLKEAEEERLKAAQYGLQLVESQNELQNQLDKCRNEMMTMTESYEQEKYTLQREVELKSRMLESLSCECEAIKQQQKMHLEKLEEQLSRSHGQEVNELKTKIEKLKVELDEARLSEKQLKHQVDHQKELLSCKSEELRVMSEQESMSSEMLALQIELTEMESMKTTLKEEVNELQYRQEQLELLITNLMRQVDRLKEEKEEREKEAVSYYNALEKARVANQDLQVQLDQALQQALDPNSKGNSLFAEVEDRRAAMERQLISMKVKYQSLKKQNVFNREQMQRMKLQIATLLQMKGSQTEFEQQERLLAMLEQKNGEIKHLLGEIRNLEKFKNLYDSMESKPSVDSGTLEDNTYYTDLLQMKLDNLNKEIESTKGELSIQRMKALFESQRALDIERKLFANERCLQLSESENMKLRAKLDELKLKYEPEETVEVPVLKKRREVLPVDITTAKDACVNNSALGGEVYRLPPQKEETQSCPNSLEDNNLQLEKSVSIYTPVVSLSPHKNLPVDMQLKKEKKCVKLIGVPADAEALSERSGNTPNSPRLAAESKLQTEVKEGKETSSKLEKETCKKLHPILYVSSKSTPETQCPQQ
notes: also called ^mChSpindly^∆RV; source: E. coli BL21 CodonPlus, purified (HisTrap, Resource Q, Superdex 200); not shown: mCherry, N-terminal, kept
With B2 the “stoichiometry N” value [3] was 2.

B3: ^mChSpindly^76–605 (domain or fragment, human, UniProt Q96EA4 76-605, looked up)
chain: LSCECEAIKQQQKMHLEKLEEQLSRSHGQEVNELKTKIEKLKVELDEARLSEKQLKHQVDHQKELLSCKSEELRVMSERVQESMSSEMLALQIELTEMESMKTTLKEEVNELQYRQEQLELLITNLMRQVDRLKEEKEEREKEAVSYYNALEKARVANQDLQVQLDQALQQALDPNSKGNSLFAEVEDRRAAMERQLISMKVKYQSLKKQNVFNREQMQRMKLQIATLLQMKGSQTEFEQQERLLAMLEQKNGEIKHLLGEIRNLEKFKNLYDSMESKPSVDSGTLEDNTYYTDLLQMKLDNLNKEIESTKGELSIQRMKALFESQRALDIERKLFANERCLQLSESENMKLRAKLDELKLKYEPEETVEVPVLKKRREVLPVDITTAKDACVNNSALGGEVYRLPPQKEETQSCPNSLEDNNLQLEKSVSIYTPVVSLSPHKNLPVDMQLKKEKKCVKLIGVPADAEALSERSGNTPNSPRLAAESKLQTEVKEGKETSSKLEKETCKKLHPILYVSSKSTPETQCPQQ
notes: source: E. coli BL21 CodonPlus, purified (HisTrap, Resource Q, Superdex 200); not shown: mCherry, N-terminal, kept
In the case of B3, the “stoichiometry N” value [3] is reported as 2.

B4: Spindly^1–275 (domain or fragment, human, UniProt Q96EA4 1-275, looked up)
chain: MEADIITNLRCRLKEAEEERLKAAQYGLQLVESQNELQNQLDKCRNEMMTMTESYEQEKYTLQREVELKSRMLESLSCECEAIKQQQKMHLEKLEEQLSRSHGQEVNELKTKIEKLKVELDEARLSEKQLKHQVDHQKELLSCKSEELRVMSERVQESMSSEMLALQIELTEMESMKTTLKEEVNELQYRQEQLELLITNLMRQVDRLKEEKEEREKEAVSYYNALEKARVANQDLQVQLDQALQQALDPNSKGNSLFAEVEDRRAAMERQLISM
notes: source: TnAO38 insect cells (baculovirus), purified (HisTrap, Resource Q, Superdex 200)
B4 was tested, and the “stoichiometry N” value [4] was 2 and 4.

B5: ^mChSpindly^∆276–306 (natural protein, human, UniProt Q96EA4 1-605, looked up)
chain: MEADIITNLRCRLKEAEEERLKAAQYGLQLVESQNELQNQLDKCRNEMMTMTESYEQEKYTLQREVELKSRMLESLSCECEAIKQQQKMHLEKLEEQLSRSHGQEVNELKTKIEKLKVELDEARLSEKQLKHQVDHQKELLSCKSEELRVMSERVQESMSSEMLALQIELTEMESMKTTLKEEVNELQYRQEQLELLITNLMRQVDRLKEEKEEREKEAVSYYNALEKARVANQDLQVQLDQALQQALDPNSKGNSLFAEVEDRRAAMERQLISMKGSQTEFEQQERLLAMLEQKNGEIKHLLGEIRNLEKFKNLYDSMESKPSVDSGTLEDNTYYTDLLQMKLDNLNKEIESTKGELSIQRMKALFESQRALDIERKLFANERCLQLSESENMKLRAKLDELKLKYEPEETVEVPVLKKRREVLPVDITTAKDACVNNSALGGEVYRLPPQKEETQSCPNSLEDNNLQLEKSVSIYTPVVSLSPHKNLPVDMQLKKEKKCVKLIGVPADAEALSERSGNTPNSPRLAAESKLQTEVKEGKETSSKLEKETCKKLHPILYVSSKSTPETQCPQQ
notes: predominantly dimeric, with a tendency to form tetramers; source: E. coli BL21 CodonPlus, purified (HisTrap, Resource Q, Superdex 200); not shown: mCherry, N-terminal, kept
B5 was tested, and the “stoichiometry N” value [3] was 2 and 4.

B6: Spindly^1–250 (domain or fragment, human, UniProt Q96EA4 1-250, looked up)
chain: MEADIITNLRCRLKEAEEERLKAAQYGLQLVESQNELQNQLDKCRNEMMTMTESYEQEKYTLQREVELKSRMLESLSCECEAIKQQQKMHLEKLEEQLSRSHGQEVNELKTKIEKLKVELDEARLSEKQLKHQVDHQKELLSCKSEELRVMSERVQESMSSEMLALQIELTEMESMKTTLKEEVNELQYRQEQLELLITNLMRQVDRLKEEKEEREKEAVSYYNALEKARVANQDLQVQLDQALQQALDP
notes: also called CC1; source: TnAO38 insect cells (baculovirus), purified (HisTrap, Resource Q, Superdex 200)
B6: binds [5].

B7: mCherry-tagged full-length Spindly (^mChSpindly^FL), Q96EA4 1-605 (natural protein)
chain: T2 chain
Molecule B7 has a stoichiometry N [6] of 2.

B8: full-length Spindly without mCherry tag, Q96EA4 1-605 (natural protein)
chain: T2 chain
Work on B8 yielded a stoichiometry N [7] of 2.

B9: ^mChSpindly^CC2* (R295E-K297E) (natural protein, human, UniProt Q96EA4 1-605, looked up)
chain: T2 chain with R295E, K297E
notes: as for B3
With B9 the “stoichiometry N” value [3] was 2.
